pKd: −log10 of the molar value.
Biological target: Krimper Tudor2 domain (562-746) (D. melanogaster) (UniProt A1ZAC4)
Assay: ITC

Chain of UniProt A1ZAC4 (A1ZAC4 562-746): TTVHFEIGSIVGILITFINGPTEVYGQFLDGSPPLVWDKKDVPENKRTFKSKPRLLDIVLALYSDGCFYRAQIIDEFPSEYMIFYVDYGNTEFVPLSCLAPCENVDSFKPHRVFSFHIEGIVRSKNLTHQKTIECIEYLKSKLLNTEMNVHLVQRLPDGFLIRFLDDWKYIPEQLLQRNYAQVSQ

| Substance | pKd |
| --- | --- |
| Aubergine peptide (residues 6 to 18) with symmetrically di-methylated arginine 15 (from UniProt O76922 6-18) | 5.39 |
| Aubergine peptide (residues 6 to 18) with symmetrically di-methylated arginine 11 (from UniProt O76922 6-18) | 4.79 |

From PMC4545750
